Here are results for 35 molecules from patent US20040146519A1 (published 2004).

Where two headings read alike, the source gives them in different places.

The target of one assay is HLA-B*0702 (human). Description: inhibition of 125I probe peptide, purified HLA.
Another assay concerns the target HLA-B*3501 (human). Description: inhibition of 125I probe peptide, purified HLA.
In the next assay the target is HLA-B*5301 (human). Description: inhibition of 125I probe peptide, purified HLA.
The target of another assay is HLA-B*5401 (human). Description: inhibition of 125I probe peptide, purified HLA.
The target of a further assay is HLA-B*5101 (human). Description: inhibition of 125I probe peptide, purified HLA.
Assay [1] addresses HLA-A*0202 (human). Description: competition with 125I probe peptide for purified HLA.
In assay [2] the target is HLA-A*0201 (human). Described as above.
Assay [3] addresses HLA-A*0203 (human). Described as above.
The target in a further assay is HLA-A*1101 (human). Described as above.
For another assay, the target named is HLA-A*3101 (human). Described as above.
A further assay concerns the target HLA-A*6801 (human). The description is as above.
The target of the next assay is HLA-A*0206 (human). Described as above.
The target in a further assay is HLA-A*6802 (human). The assay is described as above.
Assay [4] has as its target HLA-A*0203 (human). Description: inhibition of 125I probe peptide, purified HLA.
The target of assay [5] is HLA-A*0201 (human). Description: inhibition of 125I probe peptide, purified HLA.
A further assay deals with HLA-DRB1*0701 (human). Description: inhibition of 125I probe peptide, purified HLA.
In the next assay the target is HLA-A*0301 (human). Description: competition with 125I probe peptide for purified HLA.
For the next assay, the target named is HLA-A*3301 (human). The description is as above.
Assay [6] concerns the target HLA-A*0202 (human). Description: inhibition of 125I probe peptide, purified HLA.
The target of assay [7] is HLA-DRB1*0301 (human). Description: competition with 125I probe peptide, purified HLA.
The target of a further assay is HLA-DRB1*1302 (human). Description: competition with 125I probe peptide, purified HLA.
In assay [8] the target is HLA-DRB1*0301 (human). Description: competition with 125I probe peptide, purified HLA. The source holds these as a separate data set.

By IC50 is commonly meant the concentration at which inhibition is half-maximal. Read a high IC50 as lower potency. On to FPDAPTISPI [CEA.236.F1I10], for which the IC50 was 183 nM with HLA-B*0702, 1330 nM with HLA-B*3501, 1020 nM in the assay with HLA-B*5301 and 278 nM with HLA-B*5401.
With FPDAPTISPL [CEA.236.F1], the IC50 is 327 nM with HLA-B*3501, 290 nM with HLA-B*5101, 1940 nM with HLA-B*5301 and 714 nM in the assay with HLA-B*5401.
With FPGLSAGATI [CEA.680.F1, 10 AA], the figures for the IC50 in the assay with HLA-B*0702, with HLA-B*5301 and with HLA-B*5401 were 212 nM, 1480 nM and 105 nM, respectively.
Turning to FPGLSAGI [CEA.680.F1I8], the 50% inhibitory concentration (IC50) is 758 nM with HLA-B*3501, 9 nM with HLA-B*5101 and 332 nM with HLA-B*5301.
In the assay with HLA-A*0202 [1], QLIGYVIGV [CEA.78L2V9] yielded a 50% inhibitory concentration (IC50) of 5.9 nM.
As for ILIGVLVGV [CEA.691L2], the half-maximal inhibitory concentration (IC50) in the assay with HLA-A*0201 [2] was 22 nM; with HLA-A*0203 [3], 3.2 nM.
As to FPAYSGREI [CEA.92.F1], the IC50 with HLA-B*0702 worked out at 2.1 nM; with HLA-B*3501, 7200 nM; with HLA-B*5101, 183 nM; with HLA-B*5301, 664 nM.
On to RVLTLFNVTK [CEA.554.V42K10], for which the IC50 with HLA-A*1101 is 32 nM; in the assay with HLA-A*3101 it was 234 nM; in the assay with HLA-A*6801 it was 2350 nM.
Regarding FPPHRWCIPI [CEA.6.F1I10], the IC50 with HLA-B*5101 came to 423 nM; with HLA-B*5301, 8460 nM.
In the case of FPWQRLLLTI [CEA.13.F1I10], the IC50 amounted to 290 nM in the assay with HLA-B*0702, 2120 nM in the assay with HLA-B*3501, 78 nM with HLA-B*5301 and 4.2 nM with HLA-B*5401.
For the molecule YLCGIQNSV [CEA.569L2], the IC50 with HLA-A*0206 is 31 nM; in the assay with HLA-A*6802 it was 3480 nM.
Take FPQHLFGYSI [CEA.58.F1I10]: the IC50 with HLA-B*0702 came to 229 nM; in the assay with HLA-B*3501 it was 900 nM; with HLA-B*5101 it was 204 nM.
As for FPQQHTQVI [CEA.632.F1I9], the IC50 came out at 3.4 nM in the assay with HLA-B*0702, 139 nM in the assay with HLA-B*3501 and 1.7 nM with HLA-B*5401.
As to FPQQHTQVL [CEA.632.F1, 9 AA], the values for the IC50 with HLA-B*0702, in the assay with HLA-B*5101 and in the assay with HLA-B*5301 were 0.9 nM, 183 nM and 93 nM, respectively.
ILIGVLVGV [CEA.691.L2]: the IC50 in the assay with HLA-A*0203 [4] worked out at 3.2 nM; in the assay with HLA-A*0201 [5] it was 22 nM.
Consider RVLTLLSVTK [CEA.376.V2K10], for which the IC50 amounted to 164 nM with HLA-A*3101 and 5710 nM in the assay with HLA-A*6801.
For ALVGIMIGV [CEA.687L2], the IC50 is 31 nM with HLA-A*0203 [3] and 102 nM with HLA-A*6802.
In the case of LWWVNNQSLPVSPRL [CEA.177], in the assay with HLA-DRB1*0701, the concentration for half-maximal inhibition (IC50) came out at 3050 nM.
With TVSPSYTYYR [CEA.419.V2], the IC50 with HLA-A*0301 came out at 2340 nM; with HLA-A*1101, 3000 nM; with HLA-A*3301, 264 nM.
With TVSPSYTYYK [CEA.419.V2K10], the IC50 worked out at 43 nM with HLA-A*1101, 3670 nM with HLA-A*3101 and 6.7 nM with HLA-A*6801.
Regarding FPQQHTQVLF [CEA.632.F1, 10 AA], the values for the IC50 with HLA-B*3501 and with HLA-B*5401 were 51 nM and 556 nM, respectively.
As for FPQQHTQVLI [CEA.632.F1I10], the half-maximal inhibitory concentration (IC50) with HLA-B*0702 amounted to 134 nM; with HLA-B*3501 it was 809 nM; with HLA-B*5401, 278 nM.
Consider FPNNNGTI [CEA.646.F1], for which the IC50 in the assay with HLA-B*0702 amounted to 275 nM; in the assay with HLA-B*5101, 19 nM; with HLA-B*5301, 9300 nM; with HLA-B*5401, 313 nM.
Take FPQQHTQI [CEA.632.F1, 8 AA]: the half-inhibitory concentration (IC50) with HLA-B*0702 was determined as 220 nM; in the assay with HLA-B*5301, 7750 nM.
The molecule QLIGYVIGV [CEA.78.L2V9] showed an IC50 with HLA-A*0202 [6] of 5.9 nM.
As for FPGVNLSL [CEA.428.F1], the IC50 turned out to be 19 nM with HLA-B*0702, 277 nM with HLA-B*3501, 95 nM with HLA-B*5301 and 115 nM in the assay with HLA-B*5401.
As for FPQHLFGI [CEA.58.F1, 8 AA], the IC50 in the assay with HLA-B*0702 was 393 nM; with HLA-B*5101 it was 212 nM; with HLA-B*5301, 1070 nM; with HLA-B*5401 it was 0.4 nM.
In the case of IMIGVLVGVA [CEA.691 (10-mer IMIGVLVGVA)], the IC50 with HLA-A*6802 stood at 1510 nM.
Take FPSAPPHRI [CEA.3.F1I9]: the IC50 in the assay with HLA-B*3501 stood at 3600 nM; with HLA-B*5101, 15 nM; in the assay with HLA-B*5301, 258 nM; with HLA-B*5401, 14 nM.
Consider FPHRWCIPI [CEA.7.F1I9], for which the IC50 was 2.5 nM in the assay with HLA-B*0702, 257 nM in the assay with HLA-B*3501, 135 nM in the assay with HLA-B*5301 and 1.9 nM with HLA-B*5401.
For the molecule GIMIGVLVGV [CEA.690], the IC50 worked out at 64 nM in the assay with HLA-A*0201 [2]; 205 nM in the assay with HLA-A*0202 [1]; 31 nM with HLA-A*0203 [3]; 142 nM with HLA-A*0206; 500 nM in the assay with HLA-A*6802.
Consider FPVSPRLQI [CEA.363.F1I9], for which the values for the IC50 in the assay with HLA-B*3501 and in the assay with HLA-B*5301 were 5540 nM and 216 nM, respectively.
As for FPVSPRLQL [CEA.363.F1], the IC50 with HLA-B*0702 worked out at 0.7 nM; with HLA-B*3501 it was 600 nM; with HLA-B*5101 it was 82 nM; in the assay with HLA-B*5301, 310 nM.
As to FPWQRLLL [CEA.13.F1, 8 AA], the half-inhibitory concentration (IC50) with HLA-B*3501 worked out at 1760 nM; with HLA-B*5101 it was 229 nM; with HLA-B*5301 it was 443 nM; with HLA-B*5401, 71 nM.
For the molecule RLQLSNDNRTLTLLS [CEA.368], the IC50 with HLA-DRB1*0301 [7] turned out to be 938 nM; in the assay with HLA-DRB1*1302 it was 729 nM; with HLA-DRB1*0301 [8], 938 nM.
